{"source": "paper PMC10690159", "molecular_target": "SARS-CoV-2 Nsp15 catalytically inactive mutant H234A (SARS-CoV-2)", "assay": "cryo-EM structure"}
{"substance": "SARS-CoV-2 Nsp15 catalytically inactive mutant H234A (enzyme)", "values": [{"measurement": "stoichiometry N", "value": 6}]}
